The results in this text go back to the supplement of paper PMC11502859.

For this data set, the system named is HEK293T. As to the kind of experiment: median enrichment of reporter reads in eGFP-reduced (low/intermediate) vs eGFP-high sorted cells (eGFP-extension fusion abundance) (ratio); higher = stronger loss of eGFP-fusion protein abundance (more destabilising extension).
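Also: lentiviral eGFP-IRES-mCherry reporter pool sorted by FACS 96 h post-transduction, gated on mCherry-high cells, Illumina read counts normalized per million, median across four biological replicates.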

“CTRAGGGAERGAPPPLRSLALSRPSCSLSNF [POU3F2]”: the median enrichment worked out at 4.86. In the case of “GTSPAPLRTPPRLDGWAHASHWGPGSRRWAPTLGPRGAANHTGLRPSYPAPSPSTSTFTSPPFHFFLYVFFLLETDSIHIEYN [JUNB]” it was 4.58. In the case of RGSRRKQDTRWQA [PHGR1] it was 3.92. In the case of CVF [LYRM7] it was 0.777; in that of RTRIPNYISTDAFHFNSS [SAMSN1], 2.43; in that of LPAAPGTRGYTPVSLRE [KRTAP12-3], 0.986. Regarding “QHLPEETPLPTLPERGSLRTGWRRWGPSRAPGALPGMSRPTHPKAGAAAPCCPSPGLGNDDPPKSPSAPQTQGLRPPAPGIRE [FXYD7]”, the median enrichment worked out at 0.759. On to RRKCLLPW [PKD1L2], for which the median enrichment amounted to 1.93. Regarding “QEITRWHQPRALARYGEGTWGPHLPPGLFREDPTVTPPSAVGAWRWAAGLNPPWGAPFLLPICVYIHK [MEF2B]”, the median enrichment came out at 5.36. For the substance “CGSLRTTASLLLTSVATEAERQSDTSTGAPGEMGPA [PEX26]”, the median enrichment stood at 0.412. For LEMKKDEVLTQ [DNAJC5G], the median enrichment was 0.255. The figure for YLKNMYPL [ERCC5] is 7.72. In the case of “TAPALELGARAAELVFGPQRRIQNQKLKSDVRWAPAPSAESRQGEAGWSQAPSHAAPKSWTHLWGAPHLHLRPHISPLPFLYV [MYO9B]” it was 5.92. In the case of “LAPRPRETGWRHGAGPSFHGACGCRAGGAAESGPGPLPAGGDFFFSYF [GNA11]” it was 11.8. With “QPTGDPDLILNRRRLRDSRRHRSCPQWTPMNPSQPGPLTKTTRTSWELWDSLDSAVKDD [LILRB5]”, the median enrichment stood at 1.48.

As for “PVGKGGGLRGRGWMPRAPKPPFPFVSKGVRSELRKRASECVSLEGLGALWCYHLETCLMPPCLPMEDRLQELGPCGNLACFGG [MTA2]”, the median enrichment was found to be 6.97. The figure for “RGRGCPPRPLTPPAAVAAILPLAWGLPSPSQSISPPPSCSGWMWACR [KMT2B]” is 4.49; for RLQSVVLVPLSQCRLVFLHILSMA [CDC16] it is 7.48; for “SPAPHHPQEHSTHHRQPLETSYMSLGAEREVPSPCRTRSCMCLTQVWTGGHLGAGQGHPSLHIT [RABEPK]” it is 7.59.

For SSLPWAG [TMEM266], the median enrichment worked out at 5.32. In the case of “SGLVCRTAAGAPPGQIIAASDCGLYLFIPSDFFNVRYL [FBLN1]” it was 30.5. The figure for YVCCLPSPSGHTLLYHTTGLDSGWRQIDTV [LIG3] is 5.91; for “CSFPVPSHYSPKLGKGGGTYEKNSSGFITDWE [CNOT9]” it is 3.28. Consider SSKEVILFCLLIIM [CHMP2B], for which the median enrichment is 6.82.

Turning to SYCSMDIK [KDM6A], the median enrichment is 1.22. “YEEVSATSPPEPAVIFTAPAHLSPTCSFDPWTWYTSMWSCWARGVLCAVNSVGSCSGVGARFLPPWAEGPFPLVLCPHPPPFS [KLHDC3]”: the median enrichment was determined as 5.82. The figure for YIAD [FUCA2] is 0.607. In the case of LLL [Leu03] it was 4.12; in that of KDCDFFVKEAVRIIINNSNSLHFSQGVHCS [MAATS1], 5.42.

Consider QLRILKRSHGKTS [NBN], for which the median enrichment worked out at 7.35.

Consider YILKTQPSSKRHAPPHSPGPGRGGCSS [ADORA1], for which the median enrichment was determined as 2.57. On to WHPCTQEDSAFTKHFHCLAKV [GPR12], for which the median enrichment came to 11.3.

Consider SGIRLPGNSGTVALADHLQHPAS [SLC2A10], for which the median enrichment came out at 0.633.

On to “ELLTAFPKALLQKRSMSVIITWLSNLFHSMEPWRRKTLSYFVTQPGIGLFGPTRFPSPEELPRPGDQC [GRM7]”, for which the median enrichment amounted to 6.76. The figure for YDHSGQDHSGHGHGHSHGGHGHSH [S100A9] is 0.275; for LPGAGGWTC [PTH1R] it is 1.02. In the case of “WGRDSVPLAVLPSLLVCQASPPTTPHQATPAASAFLGAERQPRPPVPSPPSHHRSSAPGRTVWPLPVPAMGSGWTPWAPPIAK [CAPN1]” it was 7.5.

For the substance YCPRAHRQLQGALVANKQHL [RAB3C], the median enrichment was determined as 2.13. In the case of SRY [IL32] it was 0.749; in that of GAAPQAGVEPDLGTKD [ZNF688], 0.378; in that of YKVPLANCLEAQHNPKALFR [HIST1H1E], 6.29. For CPLNAANSASRTPNNSA [OR2AT4], the median enrichment was found to be 0.496. Regarding “YRGRPGTGGMSCRPQPGRTPHSLSRQRGQNRPAQPWSPLHSPRPLAPALPTSSAWSEGAARAQQRRGGRLWPPTSRPVPAGTA [ARHGAP39]”, the median enrichment worked out at 7.75. In the case of “RFHRSAFGHLLWWVLVTHFRLRFDGLNLYSLESMSCVYSTIRNLILFLLLFLQKQKLILKSIIMGWGGGCPQDMQDFCRGQHR [SETD4]” it was 8.11; in that of “SSAYLGLPKCWDYRREPNAQPRGVVFRDISESEGETQD [APOC1]”, 1.19; in that of KKTSSR [LGALS2], 0.594. In the case of “YPVTPRDCLVQVVAAGGTHAAPRSEQTLPCRPAPAGPDGPLWRLDLLGQAALGLSAPSCLSRCDRARPKPGCTLLDWASLHCL [MLST8]” it was 4.58; in that of KKCEECGKSFS [ZNF676], 0.361; in that of YVFLQCVLQARFIITYRFMISKIK [CLEC3A], 9.75.

Consider HHH [His03], for which the median enrichment was determined as 0.477. In the case of SLYQKPEVE [UGT2B17] it was 0.724; in that of WATLRSVFPLPPSPHVRRPPPRCSRGS [C19orf57], 15.9. The figure for MMM [Met03] is 0.831; for QRQ [GNB1] it is 0.344; for SDQGLGLRVGGLVEHCNPLNK [LRG1] it is 1.34. The figure for KECSKCGGKS [ZNF671] is 0.995; for SGNRDAFPCSSLQPPLPYKIWSNS [ADH1B] it is 2.16; for RQGPPLFWTP [CDHR2] it is 1.05. Consider TSLYKKVGMGRK [Degron APPBP2], for which the median enrichment came to 14.1. As to “SVGQATPPSSSCLRRSHSIHWNRSWVSLCSCLSFPRDPTPLWGSGTLHCTGSLHTGRGTCAPTSETCRSPQLTCPTGAQHCTQ [MAP3K11]”, the median enrichment came to 5.17. In the case of KCSIYIYN [REC114] it was 18.5; in that of “CDPCKWDSPPVHEAWLLQYLLVEELYSKMKRKNKQTNKKKHKKRKNTFLYLTMFFEYVFFL [RBFOX2]”, 0.264; in that of LQIYVCYN [OR8I2], 6.8. In the case of WGPDSELEGGEIFKEKRGKWEGCKRGE [SOX2] it was 29.7; in that of “LPFSGLQPPPGWKPWGPSGLGGAASRERAPFSGLPPQHAAS [CDR2L]”, 5.38. The figure for “PGCLPCLPRPALVAPTALTVNPEAGSPANLWAESGESWWMRLRRRQEHLETGASWTGTLPLPGHRSSGGSNLRLNTRHPCSQK [TMEM91]” is 3.37; for RAAQKETTKPLTVVTLDKETPVA [CAPRIN2] it is 45.5; for “YLICTNMTQMFSKITGKPLTSICVSQLTEKKITCSSFIISHWNII [SENP7]” it is 3.44.

On to “LGPVAGRPAPAPPPPTGVPAHSCGKGGEGRRARPEQGAGGRAQYLTRAAVLINVPMAGPRSEPASSATVTFSLRDGGGGSLSR [DUSP9]”, for which the median enrichment was found to be 2.08. The figure for SSSSSSSSS [Ser09] is 0.295.
